# Test results: patent US20070077239
# B1: MPO purified from human PMNs (protein)
# chain 1: not shown
# chain 2: VNCETSCVQQPPCFPLKIPPNDPRIKNQADCIPFFRSCPACPGSNITIRNQINALTSFVDASMVYGSEEPLARNLRNMSNQLGLLAVNQRFQDNGRALLPFDNLHDDPCLLTNRSARIPCFLAGDTRSSEMPELTSMHTLLLREHNRLATELKSLNPRWDGERLYQEARKIVGAMVQIITYRDYLPLVLGPTAMRKYLPTYRSYNDSVDPRIANVFTNAFRYGHTLIQPFMFRLDNRYQPMEPNPRVPLSRVFFASWRVVLEGGIDPILRGLMATPAKLNRQNQIAVDEIRERLFEQVMRIGLDLPALNMQRSRDHGLPGYNAWRRFCGLPQPETVGQLGTVLRNLKLARKLMEQYGTPNNIDIWMGGVSEPLKRKGRVGPLLACIIGTQFRKLRDGDRFWWENEGVFSMQQRQALAQISLPRIICDNTGITTVSKNNIFMSNSYPRDFVNCSTLPALNLASWREAS
# Biological target: bovine serum albumin, P02769
# Sequence (P02769 25-607): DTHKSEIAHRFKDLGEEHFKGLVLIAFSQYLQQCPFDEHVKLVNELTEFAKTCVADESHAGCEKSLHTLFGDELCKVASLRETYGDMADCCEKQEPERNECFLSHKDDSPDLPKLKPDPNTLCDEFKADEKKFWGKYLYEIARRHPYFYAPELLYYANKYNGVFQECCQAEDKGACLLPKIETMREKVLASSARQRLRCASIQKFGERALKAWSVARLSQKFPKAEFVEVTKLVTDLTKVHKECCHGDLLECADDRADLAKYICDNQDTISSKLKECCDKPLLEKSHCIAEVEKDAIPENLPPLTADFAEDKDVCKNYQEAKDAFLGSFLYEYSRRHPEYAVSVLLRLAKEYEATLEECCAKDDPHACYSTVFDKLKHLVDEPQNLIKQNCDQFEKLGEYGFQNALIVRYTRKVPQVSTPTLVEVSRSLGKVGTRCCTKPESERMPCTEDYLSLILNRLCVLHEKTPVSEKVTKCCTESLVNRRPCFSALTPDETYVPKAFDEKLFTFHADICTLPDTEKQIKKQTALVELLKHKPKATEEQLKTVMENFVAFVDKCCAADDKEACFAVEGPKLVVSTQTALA
protein,measurement,value
B1,endocytosis of MPO in BLMVEC (confocal microscopy),"in the presence of albumin, MPO staining was markedly co-localized with albumin-containing vesicles"
same,transendothelial 125I-MPO permeability (BLMVEC on Transwell filters),"increased more than 2-fold in the presence of albumin, as compared to γ-globulin"
